± gives the standard deviation of the averaged measurements.
tested on: ATP; experiment: switch fluorescence ratio, 500 uM ATP over buffer (Cy3 cluster intensity, sum of 5 cycles each) (fold (ratio)); higher = stronger signal-on switching upon ATP binding; sequences stand for … in TCGTCGGCAGCGTCAGATGTGTATAAGAGACAGTTTTTTTTTTTTTTTTTTTTTTTTT…TC; conditions: aptamer strand: ATP DNA aptamer (quencher-CACCTGGGGGAGTATTGCGGAGGAAGG + anchor), 100 nM annealed; ATP concentration: 500 uM
Procedure, shortened: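 Imaging in selection buffer was followed by imaging after 15 min with 500 uM ATP at 22 °C, for Cy3-labelled switching-strand clusters annealed to 100 nM quencher-labelled ATP aptamer on a modified Illumina MiSeq flow-cell. Five of these buffer/ATP cycles ran, separated by NaOH stripping and re-annealing. The fluorescence ratio per cluster is summed target-cycle over summed buffer-cycle Cy3 intensity, averaged per switch-domain sequence; clusters outside 100-1000 RFU were removed.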
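Note: ATP exposure 15 min at 22 °C before imaging.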

Sequence	switch fluorescence ratio
TTGGACGGAA	1.224 ± 0.0051
TGGGACAGCG	0.957 ± 0.031
TGCTGGAGCT	1.06 ± 0.022
GTGTGTCAGT	0.964 ± 0.013
GTTAGAAAAA	1.03 ± 0.023
CATTGACCGC	1.09 ± 0.014
GTCACCAACA	1.27 ± 0.28
TTAGAAATAT	1.01 ± 0.016
GTGTATATCG	0.991 ± 0.012
TTTGGGCCGA	0.987 ± 0.028
TTATATTAGA	0.971 ± 0.0099
TTTGAAAGGT	1.04 ± 0.072
TTTAAAGCGG	1.01 ± 0.026
GGATTGGCGG	0.983 ± 0.039
TTCATATCAT	1 ± 0.03
TAAACAATTT	0.978 ± 0.013
TCGGCGGTCT	0.999 ± 0.025
AGTATCTTCG	0.9923 ± 0.0027
TATCATAGCG	1.01 ± 0.046
TCGCTCTGTT	0.991 ± 0.011
TTTAAAATCT	1.016 ± 0.0092
CATCCGGCGG	1.17 ± 0.038
AAGTTGACCG	1.04 ± 0.046

Sequence	switch fluorescence ratio
ACGTAATTGT	1.13 ± 0.061
ATCAGGTACG	1.02 ± 0.033
AGCTCATGTG	0.988 ± 0.026
CTTTTAGGCT	1.02 ± 0.092
GGTAACAGCT	1.04 ± 0.051
GGGCCATGGT	0.9815 ± 0.0072
TACATGGGTG	1.01 ± 0.054
AAAGGGGTGA	0.9698 ± 0.0057
GCAAAGCGTC	0.9824 ± 0.0083
CGGCAGGGGA	1.05 ± 0.051
TGTGGAAAAT	1.03 ± 0.074
GCATTTCAGG	0.98822 ± 0.00033
GGTGAAGGTA	0.929 ± 0.045
AATAATGCTT	0.978 ± 0.014
ATCACAACTG	0.997 ± 0.15
TAGGGGGAAT	1.01 ± 0.054
GGGGGTGTTC	0.991 ± 0.028
GGGTACTTAG	1.05 ± 0.041
ATCTGAGAGG	1.003 ± 0.0031
TCGTTTGGTT	1.04 ± 0.026
TATTTGAAA	1.05 ± 0.059
GGTTGTTTCT	0.997 ± 0.0057
ACCAATAGGA	1.01 ± 0.021

Sequence	switch fluorescence ratio
CGCAAAAGCA	1.2 ± 0.027
CGCCTCAGGT	1.46 ± 0.14
ACATGGGTGC	1.11 ± 0.063
CCGGGATCAG	1.09 ± 0.035
TGCATTTTGC	1.08 ± 0.023
TTGCGTAAGG	1.06 ± 0.056
GGGTTGTCGC	1.01 ± 0.024
GGGGGTGGCC	0.952 ± 0.098
GCTGGGATTG	1.01 ± 0.035
GTGGACATTA	1.01 ± 0.012
TTTACGTGCG	1.054 ± 0.0061
GCTTACAACG	1.02 ± 0.029
ACGCGATAAC	4.27 ± 0.27
TTGGGGCTT	1.32 ± 0.41
CGATTTAAGG	0.9947 ± 0.0063
TTATTGGGTG	1.04 ± 0.024
AGTTTGCTTG	0.993 ± 0.025
GATTGTGCGG	0.981 ± 0.025
CCTGGCATTT	2.2 ± 1.4
CCTCACCCTT	1.13 ± 0.013
CCGTTCAGAA	1.08 ± 0.019
GACGACGTTG	1.06 ± 0.026
TTGGAAGGGG	1.13 ± 0.24

Sequence	switch fluorescence ratio
AACCCAACGA	1.27 ± 0.025
GAAGACTACG	1.04 ± 0.038
GACCTGGGGC	0.973 ± 0.068
GCTATCTGCC	1.075 ± 0.01
GCTTACTGCT	0.947 ± 0.029
ACGAATGTTG	0.9918 ± 0.0029
ATAGGAGTGG	0.964 ± 0.053
TTGGATGTAA	1 ± 0.036
TATAGTCTTT	0.983 ± 0.015
TATTGTTGTT	0.9949 ± 0.0063
GAGCTGCGGG	1.002 ± 0.0021
TCCATTTTGT	1.01 ± 0.05
CATTGGTGGT	0.989 ± 0.0039
GGGGTATAGG	0.9746 ± 0.008
TGCAGCATGA	1.333 ± 0.008
GGAATAGAAA	0.994 ± 0.033
AGGTCCGACG	0.967 ± 0.041
ATTTTATGCC	1.01 ± 0.031
GACCAGTAAG	0.9819 ± 0.0091
TTTATGAAGC	1.06 ± 0.076
CTGCGGGTGC	1.31 ± 0.2
CGAAGGGCTA	1.15 ± 0.19
AACGTTTTCT	0.991 ± 0.012

Sequence	switch fluorescence ratio
TTTTAATAGT	1.01 ± 0.018
GAACGTGGAG	0.999 ± 0.02
TTACGGGGGT	1.017 ± 0.01
GAGTTCTTG	0.986 ± 0.023
GATGGACTTT	1.03 ± 0.013
TTGGGAGGGC	1.18 ± 0.27
TTATGGGCTT	1.27 ± 0.42
CGCTTTAGTG	1.01 ± 0.014
ACGGGACAGC	1.2 ± 0.064
TTGACGAAGG	0.95 ± 0.026
AACAGTGAAA	1.02 ± 0.02
AACGGTTTAA	1.05 ± 0.014
CATAGGGAGA	1.006 ± 0.0042
GAGGGGAAGA	0.998 ± 0.031
TAGATTTT	0.9953 ± 0.007
TTTGGTAAGC	1.02 ± 0.036
AACGACAATT	1.118 ± 0.0016
GGTTTGCACG	0.992 ± 0.042
AGGTATGCGT	0.985 ± 0.041
AAAATGGATT	0.995 ± 0.055
TCAGGCTAGG	1.02 ± 0.028
GTGTAATGAG	0.964 ± 0.014
ATACGGGAGC	1.01 ± 0.048

Sequence	switch fluorescence ratio
AGGCTGCAGT	1.013 ± 0.007
AAAGCGCGCT	1 ± 0.07
ATCGTTGCGG	1.1 ± 0.099
GTGCATGGGA	0.997 ± 0.055
TCGGGGGATA	0.98 ± 0.039
GTCGGAGAGC	1.04 ± 0.039
TATCTATTTT	0.964 ± 0.011
GGTACAGAGC	1 ± 0.064
ATGGAAAGGG	0.989 ± 0.041
CGTGAGAGTG	0.9781 ± 0.0021
GACACGGCAT	1.13 ± 0.018
GGATTTTGTT	0.998 ± 0.031
GTGGGTCGTA	0.985 ± 0.046
ATTCGCATGT	1.15 ± 0.04
ATGATTGACC	1.083 ± 0.0026
TTGAAGAAAG	0.976 ± 0.021
GGGAGAGTTG	0.993 ± 0.023
TGTTTACAGC	0.997 ± 0.027
GTGGTGTATC	1.02 ± 0.019
TAACTGCAGA	1.01 ± 0.038
GGGTCAGGCT	0.981 ± 0.027
GGCGTAGCTT	1.01 ± 0.051
AGGTGGGGAT	0.994 ± 0.021

Sequence	switch fluorescence ratio
GGGAGCGCGG	0.994 ± 0.013
AATATGGGTT	0.9802 ± 0.0091
GGATCGTGGG	0.995 ± 0.03
GCATCTCGCG	1.01 ± 0.021
GTTGTGGGGA	1.02 ± 0.023
GCACCATAGC	1.06 ± 0.011
TGGTAATTAG	0.979 ± 0.014
GCTAAGTCGG	0.982 ± 0.0085
TATGCGAGAC	2.3 ± 0.15
CCAGGGTTGT	1.11 ± 0.037
TGGTTGTTTG	0.968 ± 0.035
ATGATGGGGA	0.987 ± 0.021
AGGCTGAGCT	0.979 ± 0.051
TTCGGTTATG	1.01 ± 0.033
ACAATCTAAA	1.033 ± 0.0091
TTTGAGGGGA	1 ± 0.011
ATATGGGGGG	0.998 ± 0.023
TGGTATGTGT	1.003 ± 0.0057
CATTGTAAGA	0.962 ± 0.043

— the supplement of paper PMC10126150
